{
  "source": "paper PMC8696166",
  "molecular_target": "His-GD1 (N-terminally His-tagged GD1 domain of EngA) (Synechococcus elongatus PCC7942)",
  "sequence (Q31KP9 1-169)": "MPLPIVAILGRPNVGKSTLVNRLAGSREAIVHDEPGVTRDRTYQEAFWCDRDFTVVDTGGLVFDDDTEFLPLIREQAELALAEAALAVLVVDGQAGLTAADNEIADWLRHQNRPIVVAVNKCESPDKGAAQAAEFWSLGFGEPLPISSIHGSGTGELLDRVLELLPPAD",
  "test": "pull-down; His-EngA or His-GD1 (6 μg) bound to DynaBeads-Histag, 6 μg PipX–ST added; 50 mM Tris-HCl pH 7, 0.1 M KCl, 10% glycerol, 10 mM MgCl2, 20 mM imidazole, 0.1% Triton-X100, with or without 1 mM GDP, room temperature; elution with 500 mM imidazole; Western blot with antisera against PipX and EngA",
  "data": [
    {"binder": "PipX–ST (C-terminally Strep-tagged PipX) (natural protein) MASENYLNHPTFGLLYQICSFGDSKELFATLYAQRLFFLVAFDARGTRFEPIGRNEARMLVDNRLRQLRRDASLQEYNQLQQVFKQTFL", "values": [
      {"measurement": "retention of PipX (PipX/GD1 band intensity ratio) relative to the PipX/EngA ratio with His-EngA", "value": 10, "unit": "fold"}
    ]}
  ]
}
